According to article PMC11717359, “A new pipeline SPICE identifies novel JUN-IKZF1 composite elements”:

Columns and labels:
[1] = target: IKZF1 (Ikaros), recombinant;c-JUN, recombinant;c-FOS, recombinant (Homo sapiens;Homo sapiens;Homo sapiens, UniProt Q13422;P05412;P01100 1-519;1-331;1-380, ||); assay: EMSA; 300 ng AP1 + 1 ug IKZF1; stronger than AP1 alone; EMSA per LI-COR kit protocol (829-07910), 100 nM IR700 probe, 4-12% TBE gel in 0.5x TBE; binding buffer, pH and temperature not stated; settings: protein: commercial;commercial;commercial; tags: ;;; label: IRDye 700
Chain of IKZF1 (Ikaros), recombinant;c-JUN, recombinant;c-FOS, recombinant (Q13422 whole entry, chain 1 of 3): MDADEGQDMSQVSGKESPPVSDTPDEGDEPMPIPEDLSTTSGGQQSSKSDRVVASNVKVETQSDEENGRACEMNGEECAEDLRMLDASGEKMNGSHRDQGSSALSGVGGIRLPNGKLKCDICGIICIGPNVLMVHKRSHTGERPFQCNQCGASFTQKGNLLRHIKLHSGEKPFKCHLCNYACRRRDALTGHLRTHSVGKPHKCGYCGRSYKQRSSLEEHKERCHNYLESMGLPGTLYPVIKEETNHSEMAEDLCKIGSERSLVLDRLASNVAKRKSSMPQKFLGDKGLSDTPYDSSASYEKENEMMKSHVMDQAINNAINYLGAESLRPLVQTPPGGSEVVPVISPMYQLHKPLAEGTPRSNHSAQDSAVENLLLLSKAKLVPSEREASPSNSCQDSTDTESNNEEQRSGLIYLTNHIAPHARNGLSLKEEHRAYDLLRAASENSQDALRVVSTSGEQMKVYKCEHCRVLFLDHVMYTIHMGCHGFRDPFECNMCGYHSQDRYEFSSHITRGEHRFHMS
Chain of IKZF1 (Ikaros), recombinant;c-JUN, recombinant;c-FOS, recombinant (P05412 whole entry, chain 2 of 3): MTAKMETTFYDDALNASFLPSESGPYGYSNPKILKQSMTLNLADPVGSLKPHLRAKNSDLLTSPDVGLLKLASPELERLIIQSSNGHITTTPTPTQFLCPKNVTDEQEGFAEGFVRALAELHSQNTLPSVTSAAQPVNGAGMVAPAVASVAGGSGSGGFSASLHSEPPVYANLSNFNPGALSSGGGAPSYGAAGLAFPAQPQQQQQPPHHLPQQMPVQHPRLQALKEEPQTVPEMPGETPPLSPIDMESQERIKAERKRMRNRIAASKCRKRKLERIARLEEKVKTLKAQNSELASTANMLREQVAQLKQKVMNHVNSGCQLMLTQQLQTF
Chain of IKZF1 (Ikaros), recombinant;c-JUN, recombinant;c-FOS, recombinant (P01100 whole entry, chain 3 of 3): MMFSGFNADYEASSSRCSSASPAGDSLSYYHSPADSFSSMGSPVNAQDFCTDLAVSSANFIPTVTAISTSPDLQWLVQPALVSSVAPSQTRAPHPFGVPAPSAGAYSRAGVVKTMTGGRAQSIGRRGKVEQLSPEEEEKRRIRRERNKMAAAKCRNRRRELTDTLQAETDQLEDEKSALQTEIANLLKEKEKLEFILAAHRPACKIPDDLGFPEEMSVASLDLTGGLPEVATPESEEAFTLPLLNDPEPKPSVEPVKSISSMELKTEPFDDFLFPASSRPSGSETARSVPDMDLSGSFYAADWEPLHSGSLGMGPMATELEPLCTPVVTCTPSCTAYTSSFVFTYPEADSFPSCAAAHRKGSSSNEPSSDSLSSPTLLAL

[2] = target: c-JUN, recombinant;c-FOS, recombinant (Homo sapiens;Homo sapiens, UniProt P05412;P01100 1-331;1-380, |); assay: EMSA; 300 ng AP1; EMSA per LI-COR kit protocol (829-07910), 100 nM IR700 probe, 4-12% TBE gel in 0.5x TBE; binding buffer, pH and temperature not stated; settings: protein: commercial;commercial; tags: ;; copies: 1;1; label: IRDye 700
Chain of c-JUN, recombinant;c-FOS, recombinant (P05412 whole entry, chain 1 of 2): as the sequence (P05412 whole entry, chain 2 of 3) above
Chain of c-JUN, recombinant;c-FOS, recombinant (P01100 whole entry, chain 2 of 2): as the sequence (P01100 whole entry, chain 3 of 3) above

B1: IL10 CNS9 WT probe (dsDNA)
DNA 1: GAGGTTGCAGTTTCGTTGTGAGTCAGGCCTGCTGA
DNA 2: TCAGCAGGCCTGACTCACAACGAAACTGCAACCTC
- binding result [1]: binds
- binding result [2]: binds
